B1: Subversion of eukaryotic traffic protein A (Legionella pneumophila subsp. pneumophila), Q5ZU30 (parent)
chain: MYKIYSYLGWRIDMKTENLPQAGQEAQIDKKIHFIWVGHIMPQKNIQVVSEWAEKNPGYETIIWVDKKIAPAKELDLFILDMKSKGITVKDINEEGVCRDSIRHELDQESPNYGMVSDMLRLNILAAEGGIYLDSDILCSAPFPDEIYAPFGFLLSPWSQGANNTLCNDIILCSKGNQIIQQLADAIEQSYIARDSFEFTHEYASMKETKGERIAKTLGVTGPGFLFHQLKKMGILNDKSEMEAIHWELQDQRYLIDGSVKEPDYFYVPQNNTNDASWVPSIKRPGIENMSFQERLENAVQLIAFDIQKTGLFNLDHYANELKVKQNSWCIAAETSPELKPDSYLLIRPRDKTGEWTLYYVDEDKKLNPVTLPVIKGAIKLSEVSDPLRKFHTLLSQVSDPVNPTAHELKQIGRALIELKPRQDEWHCKNKWSGAEEIAQELWQRITSNETLRAQIKQCFTQFESLKPRVAELGLTRASGAGTEVEAHESTVKEQEIISQNTVGEEGTKEKNSVQLASENSSDEKIKTAHDLIDEIIQDVIQLDGKLGLLGGNTRQLEDGRVINIPNGAAMIFDDYKKYKQGELTAESALESMIKIAKLSNQLNRHTFFNQRQPETGQFYKKVAAIDLQTTIAAEYDNNHGLRI

Variants of: B1
Details: with rab1a_human RAB1A

Variant	effect of a mutation on the interaction
D134A;D136A	disrupting interaction

Variants of: B1
Details: with rab7a_human RAB7A

Variant	effect of a mutation on the interaction
D134A;D136A	disrupting interaction

Source: IntAct's records for PubMed 30323948
